{"source": "paper doi:10.1101/2021.05.21.445118", "test_in_all_cases": "SPR", "key": {"[1]": {"target": "human extracellular ACE2 p.Glu329Gly (human) (UniProt Q9BYF1)"}, "[2]": {"target": "human extracellular ACE2 p.Glu35Lys (human) (UniProt Q9BYF1)"}, "[3]": {"target": "human extracellular ACE2 p.Lys26Arg (human) (UniProt Q9BYF1)"}, "[4]": {"target": "human extracellular ACE2 p.Ser19Pro (human) (UniProt Q9BYF1)"}}, "data": [{"substance": "SARS-CoV-2 Spike receptor binding domain (from UniProt P0DTC2) (domain or fragment)", "values": [{"measurement": "ΔΔG against WT ACE2", "setting": "[1]", "value": -0.377, "unit": "kJ/mol"}, {"measurement": "ΔΔG against WT ACE2", "setting": "[2]", "value": -1.51, "unit": "kJ/mol"}, {"measurement": "ΔΔG against WT ACE2", "setting": "[3]", "value": 1.09, "unit": "kJ/mol"}, {"measurement": "ΔΔG against WT ACE2", "setting": "[4]", "value": 2.47, "unit": "kJ/mol"}]}]}
